Assay results as given in article PMC5670239, “Structural basis for mutually exclusive co-transcriptional nuclear cap-binding complexes with either NELF-E or ARS2” (Nature Communications, 2017).

T1: CBC (Homo sapiens, UniProt P52298)
T1 sequence (P52298 1-156): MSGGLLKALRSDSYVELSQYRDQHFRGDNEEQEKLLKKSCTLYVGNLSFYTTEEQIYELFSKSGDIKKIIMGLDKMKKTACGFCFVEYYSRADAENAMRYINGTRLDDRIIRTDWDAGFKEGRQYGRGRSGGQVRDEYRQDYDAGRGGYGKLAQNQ
T1 sequence (Q09161 20-790 partner): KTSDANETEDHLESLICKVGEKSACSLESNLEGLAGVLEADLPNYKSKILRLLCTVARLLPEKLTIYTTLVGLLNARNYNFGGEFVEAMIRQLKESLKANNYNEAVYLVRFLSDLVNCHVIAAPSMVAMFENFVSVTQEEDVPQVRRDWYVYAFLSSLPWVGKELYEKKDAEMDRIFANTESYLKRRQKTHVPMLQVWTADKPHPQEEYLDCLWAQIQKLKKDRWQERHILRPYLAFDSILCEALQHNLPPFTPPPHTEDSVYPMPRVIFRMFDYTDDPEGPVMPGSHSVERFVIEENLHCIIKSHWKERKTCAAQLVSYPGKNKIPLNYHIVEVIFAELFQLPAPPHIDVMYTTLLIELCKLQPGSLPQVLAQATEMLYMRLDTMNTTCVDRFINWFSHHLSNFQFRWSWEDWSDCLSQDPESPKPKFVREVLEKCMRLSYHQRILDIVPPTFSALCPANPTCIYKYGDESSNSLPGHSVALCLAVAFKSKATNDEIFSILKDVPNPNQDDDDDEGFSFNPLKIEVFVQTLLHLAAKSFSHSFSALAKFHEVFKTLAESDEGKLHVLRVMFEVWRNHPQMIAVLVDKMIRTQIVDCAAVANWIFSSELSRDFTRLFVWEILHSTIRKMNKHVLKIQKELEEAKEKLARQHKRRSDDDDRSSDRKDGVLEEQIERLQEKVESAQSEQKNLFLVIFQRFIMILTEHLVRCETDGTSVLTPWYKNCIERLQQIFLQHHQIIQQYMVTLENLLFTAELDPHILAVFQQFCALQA

T2: m^7GTP-CBC (Homo sapiens, UniProt P52298+Q09161)
T2 construct: 6-histidine tag (pETM30 vector) (N, cleaved yes); made in house; host or cells: CBP20 in E. coli Rosetta 2; CBP80ΔNLS in High Five insect cells; heterodimer reconstituted on Ni-sepharose
T2 sequence (Q09161 20-790): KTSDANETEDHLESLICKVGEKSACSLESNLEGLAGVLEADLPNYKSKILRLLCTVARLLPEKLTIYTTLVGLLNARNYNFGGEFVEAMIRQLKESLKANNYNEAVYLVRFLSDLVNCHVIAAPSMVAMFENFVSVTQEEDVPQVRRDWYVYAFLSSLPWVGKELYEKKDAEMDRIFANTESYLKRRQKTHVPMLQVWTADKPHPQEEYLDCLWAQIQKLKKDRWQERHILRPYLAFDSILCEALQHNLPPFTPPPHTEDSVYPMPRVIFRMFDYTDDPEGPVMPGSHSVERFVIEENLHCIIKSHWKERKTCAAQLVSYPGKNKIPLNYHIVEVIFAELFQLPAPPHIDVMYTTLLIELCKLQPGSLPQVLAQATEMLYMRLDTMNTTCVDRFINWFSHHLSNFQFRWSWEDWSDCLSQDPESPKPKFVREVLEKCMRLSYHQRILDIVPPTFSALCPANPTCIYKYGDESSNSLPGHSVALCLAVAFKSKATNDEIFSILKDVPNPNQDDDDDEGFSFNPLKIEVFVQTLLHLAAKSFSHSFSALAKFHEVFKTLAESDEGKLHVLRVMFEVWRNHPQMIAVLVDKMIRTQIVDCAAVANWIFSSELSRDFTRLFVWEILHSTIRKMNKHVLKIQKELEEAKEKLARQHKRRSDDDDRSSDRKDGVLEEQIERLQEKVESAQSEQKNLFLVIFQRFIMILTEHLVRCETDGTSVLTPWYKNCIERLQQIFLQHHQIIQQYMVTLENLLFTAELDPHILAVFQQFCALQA
T2 sequence (P52298 1-156): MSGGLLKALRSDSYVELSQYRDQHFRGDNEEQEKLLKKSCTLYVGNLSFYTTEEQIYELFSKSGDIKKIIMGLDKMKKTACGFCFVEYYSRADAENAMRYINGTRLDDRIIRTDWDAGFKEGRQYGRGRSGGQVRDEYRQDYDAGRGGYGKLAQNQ


Key:
[1] = target: T1, CBC; test: ITC, binding to CBC without cap analogue; conditions: ITC (MicroCal ITC200), 25 °C, 20 mM HEPES, 120 mM NaCl, 2 mM TCEP, pH 7.8, single-site fit; no cap analogue pre-bound; mean ± SD of at least two independent experiments; SD
Description: hARS2 isoform-4 (871 residues, UniProt:Q9BXP5-4, also known as isoform-e, NP_001122326) constructs (residues 147–871, 147–845, 763–871, 763–845, 827–871) hNELF-E (NM_002904.5) (244–380, 244–360) and hPHAX (NM_032177.3) (1–394, 103–294, 103–308, 103–327) were cloned into pETM11 (EMBL). Full-length hNELF-E (1–380) was cloned into pFASTBac and CBP20 into pETM30. Primers used are given in Supplementary Table 2. All constructs were expressed in E. coli Rosetta 2 (Novagen), except full-length NELF-E and CBP80ΔNLS (CBP80 with residues 1–19 deleted[2]), which were expressed in High Five insect cells (Life Technology). Cells were harvested and lysed by sonication in lysis buffer containing 50 mM HEPES, pH 7.8, 300 mM NaCl, 10% (v/v) glycerol, 5 mM β-mercaptoethanol. Lysates were clarified by centrifugation and applied on an equilibrated Ni-sepharose column (GE Healthcare), washed with 20 mM imidazole in lysis buffer, and eluted with 300 mM imidazole in lysis buffer. While dialysing into 20 mM HEPES, pH 7.8, 120 mM NaCl, 10% (v/v) glycerol, 5 mM β-mercaptoethanol, the N-terminal 6-histidine-tag was cleaved with His-tagged Tobacco Etch Virus (TEV) protease overnight in a ratio 1:100 mg TEV per mg protein. The cleaved protein was further purified first on Ni-sepharose to remove TEV and then using an anion exchange column (HiTrap Q, GE Healthcare) followed if necessary by a Heparin column (GE Healthcare). In both cases a NaCl gradient from 50 to 800 mM in 20 mM HEPES 7.8, 0.5 mM tris(2-carboxyethyl)phosphine was used. To reconstitute the CBC heterodimer, cleared His-tagged CBP20 lysate was first immobilised on a Ni-sepharose column. After washing the column with lysis buffer, the cleared CBP80 lysate was applied to the column and further purification steps performed as described above. To remove the access of CBP20 the flow through of the Ni-column after TEV cleavage was loaded on an anion exchange column (HiTrap Q, GE Healthcare) and CBC eluted by a NaCl gradient as described above. In the text we refer to CBP80ΔNLS and CBP80ΔNLS-CBP20 as CBP80 and CBC, respectively. ARS2^845–871, NELF-E^354–380, and NELF-E^360–380 peptides, with or without FAM label at the N-terminus, were purchased from GenScript.

[2] = target: T2, m^7GTP-CBC; test: Fluorescence polarisation with FAM-labelled C-terminal peptides; format: binding; conditions: competition, 40 nM FAM peptide, 25 µM m^7GTP, 25 °C, n = 3
Experimental: Fig. 4 Incompatibility of ARS2-PHAX and NELF-E binding to CBC. a, b Competition on m^7GTP-sepharose. a In separate experiments, different amounts of ARS2^147–871 were added to preformed CBC–NELF–E complex immobilised on m^7GTP-sepharose. […] The fluorophore FAM is represented with a star. Note that different constructs of NELF-E and ARS2 were used in c, d, and e compared to f, g, and h and are therefore represented by slightly different shapes. Error bars show the SD of three experiments
Fluorescence anisotropy binding assays were performed with N-terminal FAM-labelled ARS2^845–871 and […] peptides. 40 nM peptides were titrated with increasing concentrations of proteins in 20 mM HEPES, pH 7.8, 120 mM NaCl, 2 mM tris(2-carboxyethyl)phosphine. For the competition assay CBC–ARS2 and CBC–NELF–E complexes were preformed in the presence of 25 µM m^7GTP using 40 nM ARS2^827–871(FAM) peptide together with 60 nM CBC and 40 nM NELF-E^354–380(FAM) peptide with 1 µM CBC. […] To observe a change in polarisation at reasonable protein concentrations, CBC and NELF-E^244–380 concentrations that saturate half of the FAM-labelled peptides were used to preform the individual complexes. Fluorescence polarisation was measured at 25 °C with a microplate reader (CLARIOstar BMG LABTECH) using an excitation wavelength of 495 nm and emission wavelength of 515 nm. For analysis the polarisation value for the peptide alone was subtracted from the measurements.

[3] = target: T1, CBC; test: Size exclusion chromatography (gel filtration) co-elution with CBC, without m^7GTP; format: binding; conditions: fractions analysed by SDS-PAGE, absence of m^7GTP
Experimental: Fig. 1 The interaction of CBC with ARS2 is enhanced in the presence of m^7GTP. a Schematic diagram of the domain structure of ARS2 based on ref. [26]. b Gel filtration chromatogram and Coomassie-stained SDS-PAGE of CBC-ARS2 in the presence and absence of m^7GTP. Purified recombinant CBC and ARS2^147–871 were mixed with (orange) or without (blue) 500 µM m^7GTP and subjected to gel filtration. Their elution profiles were overlaid (left) and single fractions analysed by SDS-PAGE (middle and right). Purified recombinant CBC and C-terminally truncated ARS2^147–845 were mixed with 500 µM m^7GTP and analysed in a similar way (bottom left). c ITC data and curve fit to derive the affinity of different ARS2 constructs for CBC. CBC or m^7GTP-CBC in the sample cell was titrated by ARS2. […] K D values and standard deviation represent the average from at least two independent experiments. d Sequence alignment of the C-terminus of ARS2. Conserved residues are highlighted in red. Figure made with ESPript[54]
Fig. 2 The interaction of CBC with NELF-E is enhanced in the presence of m^7GTP. a Schematic diagram of the domain structure of NELF-E. b Gel filtration chromatogram and Coomassie-stained SDS-PAGE of CBC-NELF-E in the presence and absence of m^7GTP. […] Their elution profiles were overlaid (left) and single fractions analysed by SDS-PAGE (middle and right). […]

Row | Kd [1] | Change of polarisation on titration to m^7GTP-CBC-ARS2^845–871(FAM) ([2]; 60 nM CBC) | Change of polarisation on titration to m^7GTP-CBC-NELF-E^354–380(FAM) ([2]; 1 µM CBC) | Molecule | Interaction with CBC by SEC [3]
1 | 350 ± 71 nM | did not affect the polarisation | did not change the polarisation | PHAX 103–327: human PHAX residues 103–327, includes the full PHAX RBD (protein, UniProt Q9H814 103-327, looked up, fragment) SQKPPVAGGKKINNIWGAVLQEQNQDAVATELGILGMEGTIDRSRQSETYNYLLAKKLRKESQEHTKDLDKELDEYMHGGKKMGSKEEENGQGHLKRKRPVKDRLGNRPEMNYKGRYEITAEDSQEKVADEISFRLQEPKKDLIARVVRIIGNKKAIELLMETAEVEQNGGLFIMNGSRRRTPGGVFLNLLKNTPSISEEQIKDIFYIENQKEYENKKAARKRRT | –
2 | – | – | – | PHAX 103–264: human PHAX residues 103–264 (protein, UniProt Q9H814 103-264, looked up, fragment) SQKPPVAGGKKINNIWGAVLQEQNQDAVATELGILGMEGTIDRSRQSETYNYLLAKKLRKESQEHTKDLDKELDEYMHGGKKMGSKEEENGQGHLKRKRPVKDRLGNRPEMNYKGRYEITAEDSQEKVADEISFRLQEPKKDLIARVVRIIGNKKAIELLME | No interaction via SEC
